Experimental findings from patent US20040053332A1 are described below.

The experiment concerns the target ER-DEVD-Luc (mouse; firefly). In words: cell-based or functional assay.

On to caspase-3 (from UniProt P42574 29-277), for which the cleavage of the 90 kDa fusion to a 60 kDa polypeptide (western blot, 293T cells treated with staurosporine) was 50%.
